± gives the standard error. This sample holds only a part of the variants without activity.
B1: glmS ribozyme (parent)
chain: AUAAAAGCGCCAGAACUACAGAAAUGUAGUUGACGAGGAGGAGGUUUAUCGAAUUUUCGGCGGAUGCCUCCAAA

Columns and labels:
Details in all cases: with glucosamine-6-phosphate
glucosamine-6-phosphate [1] = variants of: B1; assay: self-cleavage kobs at 40 uM GlcN6P; higher = faster cleavage; RNA array
Procedure, shortened: (§1)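 kobs was derived by fitting per-tile medians to one- or two-exponential decays after normalising signals to baseline and to non-cleaving reference variants. Those signals came from barcoded ribozyme variants transcribed in situ by E. coli RNA polymerase on sequenced MiSeq chips, followed through a hybridised Cy3 probe at 37 °C and imaged over ~14 h. Glucosamine-6-phosphate (40 μM to 10 mM) in HEPES/KCl/Mg(OAc)2 buffer was flowed in. Weighted Michaelis–Menten fits across concentrations then gave kcat and KM.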

glucosamine-6-phosphate [2] = variants of: B1; assay: self-cleavage kobs at 10000 uM GlcN6P; higher = faster cleavage; RNA array
Procedure, shortened: as §1

glucosamine-6-phosphate [3] = variants of: B1; assay: self-cleavage kobs at 160 uM GlcN6P; higher = faster cleavage; RNA array
Procedure, shortened: as §1

glucosamine-6-phosphate [4] = variants of: B1; assay: self-cleavage kobs at 640 uM GlcN6P; higher = faster cleavage; RNA array
Procedure, shortened: as §1

glucosamine-6-phosphate [5] = variants of: B1; assay: self-cleavage kobs at 2500 uM GlcN6P; higher = faster cleavage; RNA array
Procedure, shortened: as §1

Variant | self-cleavage kobs at 40 uM GlcN6P (glucosamine-6-phosphate [1]) [s⁻¹] | self-cleavage kobs at 10000 uM GlcN6P (glucosamine-6-phosphate [2]) [s⁻¹] | self-cleavage kobs at 160 uM GlcN6P (glucosamine-6-phosphate [3]) [s⁻¹] | self-cleavage kobs at 640 uM GlcN6P (glucosamine-6-phosphate [4]) [s⁻¹] | self-cleavage kobs at 2500 uM GlcN6P (glucosamine-6-phosphate [5]) [s⁻¹]
C34G A53C U69A | < 1e-05 | < 1e-05 | – | – | –
A6C G41U U65A | < 1e-05 | – | – | – | –
G29U G62U | < 1e-05 | < 1e-05 | < 1e-05 | < 1e-05 | < 1e-05
G7A G40A A52C | < 1e-05 | < 1e-05 | – | < 1e-05 | –
A33G G35C C70G | 0.000358 ± 8.4e-05 | 0.000163 ± 4.5e-05 | – | – | –
C34U G62C | < 1e-05 | < 1e-05 | < 1e-05 | < 1e-05 | < 1e-05
U45A A52U | < 1e-05 | 0.001 ± 0.00019 | – | 0.000476 ± 0.00013 | –
A15U C16A G60U | < 1e-05 | < 1e-05 | – | – | –
G41C U57A | < 1e-05 | < 1e-05 | < 1e-05 | – | < 1e-05
G13C U65G | < 1e-05 | – | < 1e-05 | < 1e-05 | < 1e-05
G7A C50G C71U | 0.000141 ± 3.5e-05 | 9.72e-05 ± 2.2e-05 | 0.000482 ± 9.3e-05 | 0.000136 ± 3.9e-05 | 0.000177 ± 3.7e-05
C10U G43A C70G | < 1e-05 | – | – | – | –
C10A C34A G38U | < 1e-05 | – | – | – | –
C8U G41C | < 1e-05 | < 1e-05 | – | < 1e-05 | –
G13U G62A | < 1e-05 | < 1e-05 | – | – | < 1e-05
C8U A15C | < 1e-05 | – | < 1e-05 | < 1e-05 | –
A6G A12C G35A G41U C71A | < 1e-05 | – | – | – | –
C11G U31A U49G | < 1e-05 | – | – | – | –
G13C A14G G32A | – | – | 0.000606 ± 0.00018 | 0.00264 ± 0.00054 | 0.00874 ± 0.0043
G9U G37U C50U C67U | – | – | < 1e-05 | – | –
A15C G32U G35U | – | – | < 1e-05 | – | < 1e-05
A36C G37C A52U A64G C70G | – | – | < 1e-05 | < 1e-05 | –
G13A G35C C71U | – | – | < 1e-05 | < 1e-05 | –
A15U C50A A64U C71U | – | – | < 1e-05 | – | –
A15C C58U C61A | – | – | 0.0001 ± 4.6e-05 | 6.79e-05 ± 2.5e-05 | –

Source: the supplement of paper PMC7125110
